Test results taken from PMC2566870.

What was measured:
Assay in all cases: SEC
[1] = molecular target: Hera_CTD (C-terminal domain of Hera, amino acids 370-511) (Thermus thermophilus HB27)
[2] = molecular target: Hera_E115C/R260C (Thermus thermophilus HB27)
[3] = molecular target: Hera_core (aa 1-365) (Thermus thermophilus HB27)
[4] = molecular target: Hera_core_E115C/R260C (Thermus thermophilus HB27)
[5] = molecular target: Thermus thermophilus DEAD box helicase Hera, wild-type (Thermus thermophilus HB27) (UniProt Q72GF3)

In the case of “Hera_CTD (C-terminal domain of Hera, amino acids 370-511) (domain or fragment)”, the stoichiometry N [1] was 2.
Work on Hera_E115C/R260C (enzyme) yielded a stoichiometry N [2] of 2.
With “Hera_core (aa 1-365) (domain or fragment)” the stoichiometry N [3] was 2.
Work on “Hera_core_E115C/R260C (domain or fragment)” yielded a stoichiometry N [4] of 2.
For “Thermus thermophilus DEAD box helicase Hera, wild-type (from UniProt Q72GF3 1-517) (enzyme)”, the stoichiometry N [5] was 2.
